Data on 2 molecules can be found in patent US20170007714A1 (ONCOMATRYX BIOPHARMA S L, published 2017).

Assay [1] has as its target T1, human Endoglin on HT1080 cells (human, UniProt P17813 26-658).
T1 construct: also called ENG-positive HT1080
T1 sequence: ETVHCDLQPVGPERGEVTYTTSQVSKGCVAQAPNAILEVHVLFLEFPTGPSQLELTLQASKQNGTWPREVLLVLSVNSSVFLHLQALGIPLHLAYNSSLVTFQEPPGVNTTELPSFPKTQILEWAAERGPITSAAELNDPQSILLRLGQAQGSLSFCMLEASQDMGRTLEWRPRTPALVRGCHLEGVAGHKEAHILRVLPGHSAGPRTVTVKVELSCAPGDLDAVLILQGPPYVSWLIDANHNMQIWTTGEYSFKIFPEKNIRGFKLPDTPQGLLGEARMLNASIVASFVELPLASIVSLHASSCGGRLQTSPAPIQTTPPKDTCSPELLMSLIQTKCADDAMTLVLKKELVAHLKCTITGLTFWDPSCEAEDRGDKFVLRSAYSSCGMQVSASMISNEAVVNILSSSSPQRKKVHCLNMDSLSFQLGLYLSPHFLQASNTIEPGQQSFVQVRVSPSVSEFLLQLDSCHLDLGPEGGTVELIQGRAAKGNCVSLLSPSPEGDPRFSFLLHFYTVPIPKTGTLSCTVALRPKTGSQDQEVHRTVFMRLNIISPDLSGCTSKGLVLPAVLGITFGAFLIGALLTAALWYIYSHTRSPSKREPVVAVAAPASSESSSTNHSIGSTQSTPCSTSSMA
Put plainly: flow cytometry on ENG-positive HT1080 cells.
Description: (§1) Cell binding was analyzed by flow cytometry, using ENG-positive HT1080 and ENG expressing mouse eEnd2.

For assay [2], the target named is T2, recombinant human Endoglin (human, UniProt P17813 26-586).
T2 construct: It states only that the extracellular domain is residues 26-561; also called rhENG; recombinant human ENG
T2 sequence: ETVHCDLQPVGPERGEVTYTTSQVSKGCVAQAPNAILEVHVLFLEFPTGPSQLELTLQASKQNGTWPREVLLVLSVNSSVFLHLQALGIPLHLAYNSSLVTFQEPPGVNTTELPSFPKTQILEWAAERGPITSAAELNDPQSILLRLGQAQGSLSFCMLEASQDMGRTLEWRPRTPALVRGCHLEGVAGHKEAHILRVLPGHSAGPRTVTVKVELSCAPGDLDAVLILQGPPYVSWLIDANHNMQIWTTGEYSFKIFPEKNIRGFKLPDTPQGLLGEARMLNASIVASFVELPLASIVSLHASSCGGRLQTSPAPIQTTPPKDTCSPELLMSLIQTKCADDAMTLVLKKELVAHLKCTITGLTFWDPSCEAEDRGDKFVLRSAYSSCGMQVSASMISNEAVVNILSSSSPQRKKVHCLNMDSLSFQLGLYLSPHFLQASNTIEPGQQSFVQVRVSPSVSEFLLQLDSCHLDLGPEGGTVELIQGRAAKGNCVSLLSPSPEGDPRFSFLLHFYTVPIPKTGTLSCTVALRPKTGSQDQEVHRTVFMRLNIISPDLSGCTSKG
Put plainly: QCM (Attana A100) on rhENG; first of two constants.

Assay [3] has as its target T2, recombinant human Endoglin. Put plainly: QCM (Attana A100) on rhENG; second of two constants (avidity contribution noted).
In assay [4] the target is T3, BSA (UniProt P02769 25-607).
T3 construct: also called coated BSA; negative control (BSA)
T3 sequence (P02769 25-607 limits assumed): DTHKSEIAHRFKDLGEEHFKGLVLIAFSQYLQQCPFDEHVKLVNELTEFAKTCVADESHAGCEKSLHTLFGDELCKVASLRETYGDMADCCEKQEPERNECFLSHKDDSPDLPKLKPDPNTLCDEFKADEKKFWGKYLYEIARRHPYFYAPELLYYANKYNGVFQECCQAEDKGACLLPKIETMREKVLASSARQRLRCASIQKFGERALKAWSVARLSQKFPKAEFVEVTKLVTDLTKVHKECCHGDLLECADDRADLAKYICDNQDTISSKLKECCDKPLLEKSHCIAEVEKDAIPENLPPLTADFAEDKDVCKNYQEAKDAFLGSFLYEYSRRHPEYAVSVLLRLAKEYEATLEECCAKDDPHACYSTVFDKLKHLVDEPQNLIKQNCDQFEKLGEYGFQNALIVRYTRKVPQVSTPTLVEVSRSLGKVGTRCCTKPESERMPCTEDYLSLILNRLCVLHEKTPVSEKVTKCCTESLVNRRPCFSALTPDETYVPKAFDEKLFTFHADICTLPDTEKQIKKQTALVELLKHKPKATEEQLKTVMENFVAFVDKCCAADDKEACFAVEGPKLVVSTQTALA
Put plainly: ELISA, coated BSA as negative control. In general terms: In an ELISA, binding on a coated surface is turned into a signal by an enzyme label.

In assay [5] the target is T4, mouse Endoglin on eEnd2 cells (mouse, UniProt Q63961 27-653).
T4 construct: also called ENG expressing mouse eEnd2
T4 sequence: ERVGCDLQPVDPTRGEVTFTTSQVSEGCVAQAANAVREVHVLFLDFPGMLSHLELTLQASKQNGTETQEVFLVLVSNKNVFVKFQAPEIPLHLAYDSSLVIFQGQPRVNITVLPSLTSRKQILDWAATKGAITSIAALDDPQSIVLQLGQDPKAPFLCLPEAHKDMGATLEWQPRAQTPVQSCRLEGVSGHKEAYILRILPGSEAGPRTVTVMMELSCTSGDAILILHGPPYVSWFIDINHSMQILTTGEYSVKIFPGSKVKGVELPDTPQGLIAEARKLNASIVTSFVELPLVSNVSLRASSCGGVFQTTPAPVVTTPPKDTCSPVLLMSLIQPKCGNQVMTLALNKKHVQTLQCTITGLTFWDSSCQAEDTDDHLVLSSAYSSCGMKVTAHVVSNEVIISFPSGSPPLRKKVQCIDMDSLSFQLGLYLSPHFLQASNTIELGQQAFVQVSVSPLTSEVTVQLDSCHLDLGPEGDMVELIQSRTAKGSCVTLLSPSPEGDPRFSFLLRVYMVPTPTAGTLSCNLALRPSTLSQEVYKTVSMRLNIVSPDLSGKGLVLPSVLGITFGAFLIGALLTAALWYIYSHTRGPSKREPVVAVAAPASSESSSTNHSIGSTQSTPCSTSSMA
Put plainly: flow cytometry on ENG-expressing mouse eEnd2 cells. Background: A flow cytometer gives signals particle by particle.
Description: as §1

The target in assay [6] is T5, recombinant mouse ENG (aa 27-581) (mouse, UniProt Q63961 27-581).
T5 construct: also called rmENG; recombinant mouse Endoglin
T5 sequence: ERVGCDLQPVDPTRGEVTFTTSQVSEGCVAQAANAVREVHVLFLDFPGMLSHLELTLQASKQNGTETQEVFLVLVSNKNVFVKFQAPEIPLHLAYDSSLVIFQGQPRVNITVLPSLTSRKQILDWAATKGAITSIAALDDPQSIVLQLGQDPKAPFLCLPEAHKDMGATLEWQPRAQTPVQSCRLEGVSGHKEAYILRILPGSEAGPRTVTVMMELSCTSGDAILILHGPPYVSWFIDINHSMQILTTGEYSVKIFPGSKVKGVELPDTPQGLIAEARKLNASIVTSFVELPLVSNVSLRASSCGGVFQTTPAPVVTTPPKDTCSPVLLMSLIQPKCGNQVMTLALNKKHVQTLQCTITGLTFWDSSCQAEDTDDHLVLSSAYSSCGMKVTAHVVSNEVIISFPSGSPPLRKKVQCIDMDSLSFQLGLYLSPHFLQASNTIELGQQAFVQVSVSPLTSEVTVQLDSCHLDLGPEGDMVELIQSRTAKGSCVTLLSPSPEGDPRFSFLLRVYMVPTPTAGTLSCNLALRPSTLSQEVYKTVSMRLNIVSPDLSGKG
Put plainly: ELISA on recombinant mouse ENG, detection with HRP-conjugated anti-human IgG.

B1: anti-human Endoglin A5-IgG1 (antibody, V domains shown)
VH: EVQLLESGGGLVQPGGSLRLSCAASGFTFSSYAMSWVRQAPGKGLEWVSAIYGSDGDTTYADSVKGRFTISRDNSKNTLYLQMNSLRAEDTAVYYCARVFYTAGFDYWGQGTLVTVSS
VL: DIELTQSPSSLSASVGDRVTITCRASQSISSSLNWYQQKPGKAPKLLIYAASSLQSGVPSRFSGSGSGTDFTLTISSLQPEDFATYYCQQAPAKPPTFGQGTKLEIKR
notes: Full-length human IgG1 (gamma1*/kappa, deficient for ADCC and CDC), made from the scFv A5 and produced in CHO cells; also called anti-huENG A5; A5 anti-huENG IgG1
With B1, in assay [1], the response was half-maximal at 0.4 nM (EC50). Also, the Kd in assay [2] was 260 nM; in assay [3], 2.5 nM.

B2: anti-murine Endoglin mE12-IgG1 (antibody, V domains shown)
VH: EVQLVESGGGVVQPGRSLRLSCAASGFTFSSYGMHWVRQAPGKGLVWVSRINSDGSSTSYADSVKGRFTISRDNSKNTLYLQMNSLRAEDTAVYYCARATGTWVMSWGQGTLVTVSS
VL: SSELIQDPAVSVALGQTVRITCQGDSLRSYYASWYQQKPGQAPVLVIYGKNNRPSGIPDRFSGSSSGNTASLTITGAQAEDEADYYCNSRDSSGTVFGGGTKLTVLG
notes: Full-length human IgG1 (gamma1*/lambda, deficient for ADCC and CDC), made from the scFv mE12 and produced in CHO cells; also called anti-muENG mE12; OCMTX004p
As for B2, the binding result in assay [4] is listed as “no binding”. Also, the values for the EC50 in assay [5] and in assay [6] were 89 nM and 60 nM, respectively.

In general, EC50 refers to the concentration that produces a half-maximal response.
